This assay has as its target T1, His6-αX I-domain (UniProt P20702 146-332).
T1 sequence (looked up): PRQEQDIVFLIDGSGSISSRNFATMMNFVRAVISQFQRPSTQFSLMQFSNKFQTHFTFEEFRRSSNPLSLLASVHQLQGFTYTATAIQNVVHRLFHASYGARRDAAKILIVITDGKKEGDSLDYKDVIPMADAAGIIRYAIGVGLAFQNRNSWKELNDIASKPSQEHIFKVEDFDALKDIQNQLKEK
The assay can be described thus: ELISA. Background: In an ELISA, binding on a coated surface is turned into a signal by an enzyme label.

As to NLDEDIIAEENIVSRSEFPESWLWNV (domain or fragment, human, UniProt P01024 750-775, looked up) [GST-αNTN], the binding result was “binds”.

For the origin of these results see article PMC7772510 (Molecules and Cells, 2020).
